Source: doi:10.1101/2024.07.08.602551

Tests used:
[1] = target: human Twisted gastrulation (residues Cys26-Phe223) (human) (UniProt Q9GZX9); assay: SPR
[2] = target: human Twisted gastrulation Leu107Ala (human) (UniProt Q9GZX9); assay: SPR
human Twisted gastrulation Leu107Ala (human), sequence (Q9GZX9 26-223 L107A): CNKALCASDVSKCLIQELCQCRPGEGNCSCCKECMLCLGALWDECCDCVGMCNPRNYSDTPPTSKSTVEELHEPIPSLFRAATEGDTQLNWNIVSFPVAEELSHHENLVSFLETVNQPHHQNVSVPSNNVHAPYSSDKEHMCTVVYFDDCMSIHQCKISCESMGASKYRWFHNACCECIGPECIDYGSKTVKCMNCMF

human Twisted gastrulation (residues Cys26-Phe223) (human), sequence (Q9GZX9 26-223): as the sequence (Q9GZX9 26-223 L107A) above, with A82L counted along it

Kd [1]: 5 nM
Kd [2]: 11 nM
Substance: human CHRDL2 (Arg24-Thr429) (natural protein)
